This note sets out measurements from US20250176833A1.

For assay [1], the target named is Fc receptors on HL-60 cells. Description: flow cytometry, titration of IRDye680RD-labeled protein on HL-60 cells, non-linear fit of normalized MFI. (In general: A flow cytometer gives signals particle by particle.)
Assay [2] has as its target Fc receptors on Mv4-11 cells. Description: flow cytometry, titration of IRDye680RD-labeled protein on Mv4-11 cells, non-linear fit of normalized MFI.
Assay [3] concerns the target Fc receptors on monocytes of human peripheral blood. Description: flow cytometry on human peripheral blood with immune panel, monocyte gate (CD14 vs Fc-680).
Assay [4] concerns the target Fc receptors on granulocytes of human peripheral blood. Nature of the assay: flow cytometry on human peripheral blood with immune panel, granulocyte gate (CD16 vs Fc-680).

As for “control IgG, labeled with IRDye680RD (antibody)”, the Kd (commonly the free concentration of one partner at which half of the binding sites on the other are occupied at equilibrium, for simple one-to-one binding) in assay [1] amounted to 5 nM; in assay [2] it was 1.7 nM.
Take “control scFv-Fc, labeled with IRDye680RD (Fc fusion)”: the Kd in assay [1] was found to be 2.1 nM; in assay [2], 1.5 nM.
Turning to “human IgG1 Fc domain (hinge, CH2 and CH3; expressed with IL2 signal sequence), labeled with IRDye680RD (from UniProt P0DOX5 218-449)”, the percent of cells bound in assay [3] is 25%; in assay [4] it was 33%. For the same substance, the values for the equilibrium dissociation constant (Kd) in assay [1] and in assay [2] were 3.6 nM and 0.4 nM, respectively.
